Test results taken from US20120141376A1, “PROSTATE SPECIFIC TRANSCRIPTS AND THE USE THEREOF FOR PROSTATE CANCER THERAPEUTICS AND DIAGNOSTICS” (priority 2006, published 2012).

Tests used:
[1] = tested on: PSMA messenger RNA (mRNA); details: LNCaP prostate cancer cell line after exposure; cited from earlier work
[2] = tested on: HLA class I (e.g. HLA-A2) expressing adherent 293T cells; experiment: CTL assay on reverse transfected microarray (caspase activation, fluorescent Z-VAD); format: cell-based, human; details: HLA-matched CD8+ T cells from prostate cancer patients incubated 4 hours on array; red fluorescent signal = positive response
Description: Additional patient samples were procured for the cytotoxic T Lymphocyte (CTL) assay. […] (PBMC) were isolated from blood drawn from patients with relevant clinical parameters, and with patient consent. Clinical data generally included patent history, physiopathology, and parameters relating to prostate cancer physiology. PBMCs were collected from 6 prostate cancer patients that met the study requirements. Duplicate samples were obtained from a single patient.
The 192 selected DATAS fragments were PCR amplified out of the library vector and directionally cloned into a eukaryotic expression vector down stream from staggered start site initiation codons. This configuration allows the DATAS fragment to be expressed in all the open reading frames, which is required because the correct reading frame is not always readily apparent.
Plasmid preparations were performed and the expression vectors containing the selcted DATAS fragment clones were re-arrayed into 96 well plates, which were subsequently used to spot glass slides for use in the CTL assay previously disclosed in International Patent Application No. PTC/US2005/032392, the disclosure of which is incorporated by reference in its entirety.
A design file containing the desired microarray positions of the DATAS expression vectors was uploaded into a high resolution scanner. The expression vectors containing the DATAS fragments were mixed with gelatin and lipofectamine and then spotted in duplicate in a pattern that matched the design file uploaded into the high resolution microarray scanner. The following positive controls, negative controls and experimental samples were spotted on the array.
The spotted arrays were then overlaid with HLA class I (e.g. HLA-A2) expressing adherent 293T cells and cultured for 48-72 hours to allow cells time to express vector-encoded transcripts.
The assay for CTL reactivity was then performed by incubating HLA-matched CD8^+ T cells from normal and prostate cancer patients on cultured reverse transfected microarray slides for 4 hours. Prior to incubation with the array, T cells from normals or patients may need to be expanded in vitro, to a small or large extent, to enhance the frequency of responding T cells. An inhibitor of activated caspase, fluorescence-tagged (sulfo-Rhodamine)-Z-VAD, is present throughout the cell incubation to bind caspases that become activated when antigen expressing adherent cells on certain spots are induced to die by the CTL. The slides are then washed to remove unbound fluorescent Z-VAD and 2-color (Green and Red) fluorescence images of the microarray slides are obtained with the microarray scanner.
Analysis and confirmation of data is then determined by visual inspection of the scanned image. The success of the reverse transfection is evaluated by observing green fluorescence at EGFP vector control spots. Then the fluorescence threshold(s) are adjusted on microarray scanner as necessary to establish relevant background and positive control signal intensities. […] Using the coordinate locations for the spots, the cDNAs yielding positive responses are identified.

Molecule	PSMA messenger RNA (mRNA) down-regulated [1]	Patient ID with positive hit [2]
C[C@]12CCC(=O)C[C@@H]1CC[C@@H]1[C@@H]2CC[C@]2(C)[C@@H](O)CC[C@@H]12 [5-alpha-dihydroxytestosterone]	8-10 fold	–
No. 2: DATAS fragment; melanoma assoc. antigen (mutated) 1; exon extension (nucleic acid, listed as Homo sapiens) DNA: GGCTCAGGGGGCACGTTTGCGTTTGGACCTGTCTGCGCGTTCTCCTGCGTGGCAGTCCTGATTTCCATACTTCTGGAGAATCCATTTCGTTAACACTGAAAGCCAGTTCTCTTTTCCTGGCAGTTTTTTTCATTTTATTTTTGGCATTTTTTACAAGATACCGTTCGGGAAAGGCTTTTGAAAGGACGGAAGCGTATTCACTGTGCGCCAGTACTCCTGGCTGTGCTGTGGTTTCTCCCGACGTGCACATCGATCTCGTATGTGTGGCATCTGATATTAAACGGGAGGTTTTAAGAAGCGTCTGCCGTGATCATGGAGCTTCGGAAGCGGGAATGGTTCTTCCGGGTTTGCTGTTTTGTCTGTTTCCCCCTTGTGTGGTTTCCGCCTGCGACAGTTCCAGAATTTGCTCTCCCACTCAGTGTGCTCTGCAGCTG	–	EYGRT; MSMPB
No. 3: DATAS fragment; aminoacylase 1; exon extension (nucleic acid, listed as Homo sapiens) DNA: CCAGGCAGCTGGCGAGGGGGTCACCCTAGAGTTTGCTCAGGTATGGACTTGGGACATGTGATGGGAGAGTGTGGGAGCCGGGGGAGACCCAAGTGTGCAACAGTGGAGTGTGTGCTTGGTGTGTCTGCATATGTCTGGGCATTTCTTTATCTGTGACAGACACATTTTATTCCAACAAGCATTCATTGTAGAGGCCACTGTGGGTGCTGGGGAATGCTGTGGGGAGTAAAATTAGGCACAGTTCATGCCCTTGTATGGTGAAACGGGGAGATATAAATCAAACATTTATGTGATATTACTTTTTTCTGAGAGAATCTCACTCCGTCAC	–	MSMPB
